Biological target: Legionella collagen-like protein (Lcl) from L. pneumophila strain 130b, intact, residues 1-401 (Legionella pneumophila strain 130b)
Assay: SEC-MALS

Substance: Legionella collagen-like protein (Lcl) from L. pneumophila strain 130b, intact, residues 1-401 (natural protein)
- stoichiometry N: 3

— article doi:10.1101/2023.12.10.570962 (bioRxiv, 2023)
